# Results published in the DeepSol protein solubility set.
# Assay: soluble on expression in E. coli; label from the status in PepcDB or PDB records
row,Sequence,soluble on expression in E. coli
1,MTDLSRSQFGFRKARSTVDVVNIVVKVAAQAIEGIMVTLDIRNVFNTARWDRIIKALIGFGELAYLVRIIRSYFSKRVLLCESSEGVFSPQVTGGVPKGSVLGQLLWNAMKTGYFAYHWLRGTNRRLRGRRGFARCLEHHHHHH,not soluble
2,MGSDKIHHHHHHMSRPAITAIPVFKLYGETTAWPTPDLIHCESIPERSRMHDWEIKPHRHGDLVQLLYVQSGKAMLKVEDRVRKVETASLQVVPALSVHTFRFAEDIQGHILSLAKPLVEQLETTLDSSAMRTARCYELGADSHYVDTLFSAIAREYRQPRAGRDLMLHSLINVLVVWLSRRNSEEAGEQVQTMDRGREHLQVFMHQLETCFREHWSIEQHAQAMGISAAHLNALCRRLCDQSALQIISQRLLLEAKRNLIYTTLTINQVSDSLGFSEPAYFSRFFKRATGQSPREFRQQK,not soluble
3,MNTTPLVIGAYAALPATRADQETFYDRLHADLEATGLELPFRDSIHDDPAWLASQLAGRFTDSIITAIPGTMMRVWDGGTFGLASPDDDGRNAAIAFTRSIIDSARALDDAAGHRVIAGIHIHSAPSVTANRDQFLRSLTELLEGMDNDDPRLIIEHCDRYNEAVTGEKRFLSIEQEIAIAKETGIGITVNWGRSAMEAYDTQLPARHIQALVAEGVFEGVMFSGAGDKENTFGAAWADLHLPHHVDEPASLMDDDRIAECLSAAGGAQKYHGAKIQAPADVDVATRVTMLGHITRHLR,soluble
4,SRRLLNDSTGRIYQRVGKEGEKLKEEPQDLDLVWPPRLNSSAEAPQSLHPSSRGVWNELPPQSGQFSGQYGTRSRTFQSQPHPTTSSNGMVVNKHSEGSHGGELPVVNSSAGSNCCTCNCQSTLQAILQELKTMRKLMQIQAVGTQNRQQPPISLICSQRTAVSRKRNKKKKVPPKTVEPLTVKQKPSGSEMEKKSVVASELSALQAAEHTSPEESRVLGFGIVLESPSSDPEVQLAEGFDVFMPKSQLDSILSNYTRSGSLLFRKLVCAFFDDKTLANSLPNGKRKRGLNDNRKGLDQNIVGAIKVFTEKYCTANHVDKLPGPRDWVQILQDQIKLARRRLKRGSEIADSDERLDGIALPPTVV,not soluble
5,KNAELSIKLNKEEYQANEDIEIQITAPYTGSGLITIERDKVYAVHWFKTEAQNSVQTIRIPADFQGNGYVNVAFIRDWESPELFISPLSYSVAPFNVNHDKHDIKIGLKTPELARPGESFTIDYHTDKPGKIIVFAVDEGILQVANY,not soluble
6,MGHHHHHHSHMALVTVQRSPTPSTTSSPCASEADSGEEECRSQPRSISESFLTVKGAALFLPRGNGSSTPRISHRRNKHAGDLQQHLQAMFILLRPEDNIRLAVRLESTYQNRTRYMVVVSTNGRQDTEESIVLGMDFSSNDSSTCTMGLVLPLWSDTLIHLDGDGGFSVSTDNRVHIFKPVSVQAMWVDRDSRNKHCDVLLVEE,not soluble
7,MYTIAALYHFTRFADPADLKPALLDLCLAQGVKGTLLLAKEGINGTIAGPRAGIDAVLAHIRALPGCSDLEWKEATSDHPPFGKMKVRLKQEIVTMGQPDVDPRARVGHYVEPEDWNDLIRSDDVVLIDTRNDYEVAIGTFEGAIDPMTESFRDFPAWWEANKERFHNKRVAMFCTGGIRCEKSTNYLLGQGVEDVYHLKGGILRYLEEVPAENSTWQGECFVFDNRVSVGHGLVEGPHELCHGCRRPILPEDRNRPEYEHGVSCHLCIDETSEADKMRFRERQKQIALARARGEDHLATH,not soluble
8,MLSTVFRRTMATGRHFIAVCQMTSDNDLEKNFQAAKNMIERAGEKKCEMVFLPECFDFIGLNKNEQIDLAMATDCEYMEKYRELARKHNIWLSLGGLHHKDPSDAAHPWNTHLIIDSDGVTRAEYNKLHLFDLEIPGKVRLMESEFSKAGTEMIPPVDTPIGRLGLSICYDVRFPELSLWNRKRGAQLLSFPSAFTLNTGLAHWETLLRARAIENQCYVVAAAQTGAHNPKRQSYGHSMVVDPWGAVVAQCSERVDMCFAEIDLSYVDTLREMQPVFSHRRSDLYTLHINEKSSETGGLKFARFNIPADHIFYSTPHSFVFVNLKPVTDGHVLVSPKRVVPRLTDLTDAETADLFIVAKKVQAMLEKHHNVTSTTICVQDGKDAGQTVPHVHIHILPRRAGDFGDNEIYQKLASHDKEPERKPRSNEQMAEEAVVYRNLM,soluble
9,MDRRRFLVGLLGLGLARGQGLRVEEVVGGLEVPWALAFLPDGGMLIAERPGRIRLFREGRLSTYAELSVYHRGESGLLGLALHPRFPQEPYVYAYRTVAEGGLRNQVVRLRHLGERGVLDRVVLDGIPARPHGLHSGGRIAFGPDGMLYVTTGEVYERELAQDLASLGGKILRLTPEGEPAPGNPFLGRRGARPEVYSLGHRNPQGLAWHPKTGELFSSEHGPSGEQGYGHDEVNLIVPGGNYGWPRVVGRGNDPRYRDPLYFWPQGFPPGNLAFFRGDLYVAGLRGQALLRLVLEGERGRWRVLRVETALSGFGRLREVQVGPDGALYVTTSNRDGRGQVRPGDDRVLRLL,soluble
10,MGSDKIHHHHHHMNVAILLAAGKGERMSENVPKQFLEIEGRMLFEYPLSTFLKSEAIDGVVIVTRREWFEVVEKRVFHEKVLGIVEGGDTRSQSVRSALEFLEKFSPSYVLVHDSARPFLRKKHVSEVLRRARETGAATLALKNSDALVRVENDRIEYIPRKGVYRILTPQAFSYEILKKAHENGGEWADDTEPVQKLGVKIALVEGDPLCFKVTFKEDLELARIIAREWERIP,soluble
11,MTKTNLITGFLGSGKTTSILHLLAHKDPAEKWAVLVNEFGEVGIDGALLADSGALLKEIPGGCMCCVNGLPMQVGLNTLLRQGKPDRLLIEPTGLGHPKQILDLLTAPVYEPWIDLRATLCILDPRLLLDQQSVANENFRDQLASADIIIANKTDRATAQSDAALQQWWRQYGGDRQLIHAEHGQIDGKLLDLPRQNLAELPASAAHSHTHASKKGLAALNLPAQQRWRRSLNSGQGHQACGWIFDADTVFDTIGLLEWARLAPVGRVKGVMRIQEGLVRINRQGDDLHIETQSVAPPDSRVELISNTETDWNTLQTALLKLRLATHA,not soluble
12,MVSYKLTYFDGRGAGELCRQIFAAAEQKYEDNRLTDEEWEKFKAAGKTPYNQLPMLEVDGKPLAQSHAMARYLAREFGFNGKSRWEEAQVNSLADQYKDYYAEARPYLAVKLGYTEGDAEALYTSVYLPVFKKHYGFFVNALKASGSGFLVGNSLTFIDLLVAQHSADLLGREKSDLFNDVPEMKAHSEKVQSIPQIKKWIETRPASDW,not soluble
13,EVLPNFAENARPIEGKKPYTVLQLAGRAVYIKDSCNACHSQLIRPFKSETDRYGMYSVSGEFAYDRPFLWGSKRTGPDLARVGNYRTADWHENHMWDPTSVVPDSIMPSYKHMFKNNADIETAYAEALTVKKVFNVPYDAENGTKLGSWEDAQAEVKAEAQAIVDQMKNQEVKDAFAKGEIKEIVALIAYLNSLK,not soluble
14,MTQMNFTDRATRVAIIANGKYQSKRVASKLFAAFKHDPDFYLSKKDPDIVISIGGDGMLLSAFHMYEKQLDKVRFVGVHTGHLGFYTDYRDFEVDTLINNLKNDKGEQISYPILKVTITLEDGRVIRARALNESTIKRIEKTMVADVVINQVVFERFRGDGILVSTPTGSTAYNKSLGGAVLHPTIEALQLTEISSLNNRVYRTLGSSVIIPKKDAIEIVPKRVGVYTISIDNKTVHYKNVTKIEYSIDEKSINFVSTPSHTSFWERVNDAFIGEPEHLEHHHHHH,not soluble
15,MDFEQLKQDVIAYSKTIGIDKIGFASASPFEELKQRLIQQQQLNYQSGFEEPDIEKRTNPQLLLPGAKSIIAIALAYPSKLKNAPLSKRGERRGIFCRASWGQDYHLVLRDRLQKLEAYLIEKLPDIEVKSMVDTGELSDRAVSERAGIGWSGKNCSIITPEFGSYVYLGEMITNVPFPPDKPIEDQCGGCTKCIDICPTGALIQGGQLDSKKCIAFLTQTKGFLPEEYRDKIGNRIYGCDTCQTVCPKNKGMDFHNHPEMEPDPELVKPLLTPLLTISNRDFKEKYGIMSGSWRGKKPLQRNAILALAHFKEASAIPDLIGVMKDDPRPVLRGTAAWALGKIGGDGVGEAIEKAMEREKDEEVLHEMNRGLELLAQKKE,not soluble
16,SLKVYSKDEIVEQAKELAKMISETEEVDFFKKAEAQIHKNENVKRAIDEIKALQKQAVNLQHYGKWEALKKVEAEIDALQDKLDSIPVVQEFKSSQTYVNDLLQLVASTISNNVTDEILISTNGDVLKGETGAAVESKKGNCGC,soluble
17,MTDGTPTTLTDRIEAALRDVRDPNADLSVFDAGFVENIDAADGEVTIEADLTALDGQTSTQVVQAMLHAVDDVDGVDSVHVERTTPTGEGNAGVESFDRVVAVASAKGGVGKSTVATHLACALAADNDVALFDADIHGPNVPELLDVSGPVHSSEEGDPLPVRAGDMDVMSVGLMESGAPLAWRGAMAHDALNDLFENTAWRNDDVLVLDLPPGTGDVVLTTLQEVPVDGVVVVTTPFHASVSDTSRTVELFRDNDVPVLGTVVNMAEYVCDCCGEPNDLFTGDALGDLDAEVLAELPFSHDLQGTPAPGSVPDAVSSLGDAVESALDTAGEVGVDPTADIRDLQPQERKDRVRERFTALDSGEPFVLVSDRDPTPVGQFLGRLAEAPREAFDPFEVRRETPEAWVLETAKPLEHHHHHH,soluble
18,MVKSPGASPERKKVKIDVYPMVVKDPQAREINETLLFDYTTALSSFETPTEEQLLVSEGDAFRHHPNEDVEQYFRASAQWGVPAIAWNIVRPAFLWKLEFCITEFMNVEKKKKEAAANSAQANSEVEKIAESPVKEKLSILGHKVNLIKTTPVVFSTEESMEFVLSKAKSFDGFPFTWQRLCELLIEPMRHYNTIDKFLRAVDKVINVVTTINENGGRSFGDWDLPNSQQFHLENTFFGVVDEVEMMELEKVKHDFQSSSSPSEEPLDMSQKSMPAPRVSTASPDPPSFVLPTARSPINTSPSSSPKASSPKASSPKAASPVSSPKSPVIQDQSPKKEDAKEGEGEIVHEEEMPEETLEVETKNEVNKEDADMEIGAE,not soluble
19,MKKMGGKIFAVRVTQGQEENTARLIYSKVKTYNLPIYAILAPSKVKGYIFIEAPEKSVVDEAIRGIRHARGVLPGEIPFSEIEHFLEEKPAVSGLEPGDIVELISGPFKGEKAKVVRVDESKDEIVVELIGAIVPIPVTVRGEYVRLISKRQKEE,soluble
20,MAHHHHHHMESINRNNNINKNEIDNKINNNNNMDVPIEGNEKSQEGDIIGQFGVGFYSSFVVSNKVEVFTRSYDNNSSKGYHWVSYGNGTFTLKEVDNIPKGTKIICHLKDSCKEFSNIQNVQKIVEKFSSFINFPVYVLKKKKILQTRKDIEQNELNDHTQQNELNHHNDQNDHTQQNELNHHNDQNDHTQQNELNHHNDQNDHTQQNELNHHVEHHKNVVENKNDEYEKNMDNRTSDNIKPESLSKQNDYENMNQCNNEETVLNRTKELNEEHIVEEILVNKQKPLWCKDNVTEEEHRHFFHFLNKNKSYNEDNKSYLYNMLYKTDAPLSIKSVFYIPEEAPSRLFQQSNDIEISLYCKKVLVKKNADNIIPKWLYFVKGVIDCEDMPLNISRENMQDSSLINKLSRVVVSKILKTLEREADINEEKYLKFYKNYNYNLKEGVLEDSNKNHYKNSLMNLLRFYSINQNKFISLKQYVNNFRNNQKNIYYFSANDKNVALNSPYMEPFKKQNIDVLLLLEEIDEFVLMNLQTYKDAKFVSIDTSQNEDFDEAVLNTNKNDNEKKQSIFFNDEQKKELQAYFKQVLGSKCSDVKFSERLTTSPAVVTGFLSPTLRKVMKATMKNSDFNDNTNNSNNMNMFQNLPATLELNPSHTIVTSIYHLKNTNQEVAKLLVQQLYDNACIAAGILEDPRSLLSKLNELLLLTARYAYHYEKKDIQENTKDQPIDVKDNTMAIDNIVNTKENNTNDDSVMKEAQSSNL,not soluble
